B1: PRPH (parent)
chain: RTFGPPPSLSPGAFSYSSSSRFSS
B2: ALDH8A1 (parent)
chain: WSSRSPQERSRVLNQVADLLEQSL

Variants of: B1
Experiment: protein stability index of a GFP-peptide fusion (GPS, HEK-293T) (PSI 1-6); higher = more stable
Details: c terminus: a fixed tail appended
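Further: lentivirally expressed fusions sorted by FACS into six bins by GFP to DsRed ratio, PSI derived from sequencing read proportions per bin multiplied by bin number.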

Question: With RTFGPPPSLSPGAFSYSSSSQFSS as the variant, how does the protein stability index read?
Answer: 3.23

Question: With RTFGPPPSLSPGAFSYSSSSKFSS as the variant, how does the protein stability index read?
Answer: 3.5

Question: Which protein stability index does the source give for RTFGPPPSLSPGAFSYSSSSGFSS here?
Answer: 2.85

Question: For RTFGPPPSLSPGAFSYSSSSSFSS, which protein stability index is on record?
Answer: 3.02

Question: For RTFGPPPSLSPGAFSYSSSSMFSS, which protein stability index is on record?
Answer: 2.8

Question: With RTFGPPPSLSPGAFSYSSSSLFSS as the variant, how does the protein stability index read?
Answer: 2.56

Question: With RTFGPPPSLSPGAFSYSSSSHFSS as the variant, how does the protein stability index read?
Answer: 3.48

Question: For RTFGPPPSLSPGAFSYSSSSFFSS, which protein stability index is on record?
Answer: 2.25

Question: With RTFGPPPSLSPGAFSYSSSSNFSS as the variant, how does the protein stability index read?
Answer: 3.03

Question: For RTFGPPPSLSPGAFSYSSSSYFSS, which protein stability index is on record?
Answer: 2.08

Question: For RTFGPPPSLSPGAFSYSSSSVFSS, which protein stability index is on record?
Answer: 3.1

Question: With RTFGPPPSLSPGAFSYSSSSWFSS as the variant, how does the protein stability index read?
Answer: 1.75

Question: With RTFGPPPSLSPGAFSYSSSSTFSS as the variant, how does the protein stability index read?
Answer: 3.18

Question: For RTFGPPPSLSPGAFSYSSSSIFSS, which protein stability index is on record?
Answer: 2.44

Question: Which protein stability index does the source give for RTFGPPPSLSPGAFSYSSSSEFSS here?
Answer: 3.22

Question: With RTFGPPPSLSPGAFSYSSSSPFSS as the variant, how does the protein stability index read?
Answer: 3.25

Question: With RTFGPPPSLSPGAFSYSSSSRCSS as the variant, how does the protein stability index read?
Answer: 3.82

Question: For RTFGPPPSLSPGAFSYSSSSRVSS, which protein stability index is on record?
Answer: 3.8

Question: For RTFGPPPSLSPGAFSYSSSSRASS, which protein stability index is on record?
Answer: 3.4

Question: With RTFGPPPSLSPGAFSYSSSSRWSS as the variant, how does the protein stability index read?
Answer: 2.83

Question: Which protein stability index does the source give for RTFGPPPSLSPGAFSYSSSSRHSS here?
Answer: 3.55

Question: Which protein stability index does the source give for RTFGPPPSLSPGAFSYSSSSRDSS here?
Answer: 3.94

Question: For RTFGPPPSLSPGAFSYSSSSRSSS, which protein stability index is on record?
Answer: 4.18

Question: Which protein stability index does the source give for RTFGPPPSLSPGAFSYSSSSRMSS here?
Answer: 3.73

Question: With RTFGPPPSLSPGAFSYSSSSRYSS as the variant, how does the protein stability index read?
Answer: 3.22

Question: With RTFGPPPSLSPGAFSYSSSSRTSS as the variant, how does the protein stability index read?
Answer: 4.17

Question: For RTFGPPPSLSPGAFSYSSSSRKSS, which protein stability index is on record?
Answer: 4.21

Question: With RTFGPPPSLSPGAFSYSSSSRLSS as the variant, how does the protein stability index read?
Answer: 3.72

Question: With RTFGPPPSLSPGAFSYSSSSRISS as the variant, how does the protein stability index read?
Answer: 3.81

Question: With RTFGPPPSLSPGAFSYSSSSRPSS as the variant, how does the protein stability index read?
Answer: 3.27

Question: With RTFGPPPSLSPGAFSYSSSSRGSS as the variant, how does the protein stability index read?
Answer: 4.16

Question: With RTFGPPPSLSPGAFSYSSSSRESS as the variant, how does the protein stability index read?
Answer: 4.03

Question: For RTFGPPPSLSPGAFSYSSSSRQSS, which protein stability index is on record?
Answer: 3.78

Question: Which protein stability index does the source give for RTFGPPPSLSPGAFSYSSSSRNSS here?
Answer: 3.44

Question: With RTFGPPPSLSPGAFSYSSSSRFAS as the variant, how does the protein stability index read?
Answer: 3.17

Question: With RTFGPPPSLSPGAFSYSSSSRFKS as the variant, how does the protein stability index read?
Answer: 3.48

Question: Which protein stability index does the source give for RTFGPPPSLSPGAFSYSSSSRFGS here?
Answer: 2.6

Question: For RTFGPPPSLSPGAFSYSSSSRFTS, which protein stability index is on record?
Answer: 3.23

Question: For RTFGPPPSLSPGAFSYSSSSRFES, which protein stability index is on record?
Answer: 2.79

Question: For RTFGPPPSLSPGAFSYSSSSRFIS, which protein stability index is on record?
Answer: 2.52

Question: For RTFGPPPSLSPGAFSYSSSSRFMS, which protein stability index is on record?
Answer: 2.88

Question: For RTFGPPPSLSPGAFSYSSSSRFQS, which protein stability index is on record?
Answer: 3.47

Question: For RTFGPPPSLSPGAFSYSSSSRFFS, which protein stability index is on record?
Answer: 3.09

Question: For RTFGPPPSLSPGAFSYSSSSRFNS, which protein stability index is on record?
Answer: 3.36

Question: With RTFGPPPSLSPGAFSYSSSSRFYS as the variant, how does the protein stability index read?
Answer: 2.66

Question: For RTFGPPPSLSPGAFSYSSSSRFVS, which protein stability index is on record?
Answer: 2.85

Question: For RTFGPPPSLSPGAFSYSSSSRFPS, which protein stability index is on record?
Answer: 3.59

Question: With RTFGPPPSLSPGAFSYSSSSRFRS as the variant, how does the protein stability index read?
Answer: 3.52

Question: For RTFGPPPSLSPGAFSYSSSSRFDS, which protein stability index is on record?
Answer: 2.9

Question: With RTFGPPPSLSPGAFSYSSSSRFLS as the variant, how does the protein stability index read?
Answer: 2.93

Question: With RTFGPPPSLSPGAFSYSSSSRFCS as the variant, how does the protein stability index read?
Answer: 3.02

Question: With RTFGPPPSLSPGAFSYSSSSRFHS as the variant, how does the protein stability index read?
Answer: 3.02

Question: For RTFGPPPSLSPGAFSYSSSSRFST, which protein stability index is on record?
Answer: 3.23

Question: For RTFGPPPSLSPGAFSYSSSSRFSY, which protein stability index is on record?
Answer: 2.46

Question: With RTFGPPPSLSPGAFSYSSSSRFSM as the variant, how does the protein stability index read?
Answer: 2.55

Question: With RTFGPPPSLSPGAFSYSSSSRFSQ as the variant, how does the protein stability index read?
Answer: 3.31

Question: For RTFGPPPSLSPGAFSYSSSSRFSL, which protein stability index is on record?
Answer: 2.27

Question: Which protein stability index does the source give for RTFGPPPSLSPGAFSYSSSSRFSK here?
Answer: 3.89

Question: For RTFGPPPSLSPGAFSYSSSSRFSI, which protein stability index is on record?
Answer: 3.01

Question: With RTFGPPPSLSPGAFSYSSSSRFSN as the variant, how does the protein stability index read?
Answer: 3.44

Question: For RTFGPPPSLSPGAFSYSSSSRFSR, which protein stability index is on record?
Answer: 3.85

Question: For RTFGPPPSLSPGAFSYSSSSRFSC, which protein stability index is on record?
Answer: 2.83

Question: Which protein stability index does the source give for RTFGPPPSLSPGAFSYSSSSRFSF here?
Answer: 1.96

Question: Which protein stability index does the source give for RTFGPPPSLSPGAFSYSSSSRFSW here?
Answer: 2.82

Question: For RTFGPPPSLSPGAFSYSSSSRFSH, which protein stability index is on record?
Answer: 3.55

Question: Which protein stability index does the source give for RTFGPPPSLSPGAFSYSSSSRFSV here?
Answer: 2.3

Question: Which protein stability index does the source give for RTFGPPPSLSPGAFSYSSSSRFSE here?
Answer: 3.38

Question: Which protein stability index does the source give for RTFGPPPSLSPGAFSYSSSSRFSD here?
Answer: 3.19

Variants of: B2
Experiment: as above
Details: c terminus: a fixed tail appended

Question: With WSSRSRQERSRVLNQVADLLEQSL as the variant, how does the protein stability index read?
Answer: 2.31

Question: With WSSRSLQERSRVLNQVADLLEQSL as the variant, how does the protein stability index read?
Answer: 2.17

Question: Which protein stability index does the source give for WSSRSGQERSRVLNQVADLLEQSL here?
Answer: 2.85

Question: For WSSRSEQERSRVLNQVADLLEQSL, which protein stability index is on record?
Answer: 3.07

Question: For WSSRSPQERSPVLNQVADLLEQSL, which protein stability index is on record?
Answer: 2.58

Question: For WSSRSPQERSFVLNQVADLLEQSL, which protein stability index is on record?
Answer: 2.43

Question: For WSSVSPQERSRVLNQVADLLEQSL, which protein stability index is on record?
Answer: 2.02

Question: Which protein stability index does the source give for WSSFSPQERSRVLNQVADLLEQSL here?
Answer: 1.82

Question: For WSSHSPQERSRVLNQVADLLEQSL, which protein stability index is on record?
Answer: 2.71

Question: With WSSESPQERSRVLNQVADLLEQSL as the variant, how does the protein stability index read?
Answer: 2.97

Question: With WSSRSPQERSRVLNQVFDLLEQSL as the variant, how does the protein stability index read?
Answer: 2.58

Question: For WSSRSPQERSRVLNQVMDLLEQSL, which protein stability index is on record?
Answer: 1.85

Question: Which protein stability index does the source give for WSSRSPFERSRVLNQVADLLEQSL here?
Answer: 1.77

Question: For WSSRSPEERSRVLNQVADLLEQSL, which protein stability index is on record?
Answer: 2.76

Question: Which protein stability index does the source give for WSSRSPTERSRVLNQVADLLEQSL here?
Answer: 2.15

Question: Which protein stability index does the source give for WSSRSPWERSRVLNQVADLLEQSL here?
Answer: 2.37

Question: Which protein stability index does the source give for WSSRSPQERSRVLNQVADLLEQSA here?
Answer: 2.88

Question: For WSSRSPQERSRVLNQVADLLEQSE, which protein stability index is on record?
Answer: 3.59

Question: Which protein stability index does the source give for WSSRSPQERSRVLNQVADLLEQSP here?
Answer: 4.16

Question: For WSSRSPQERSRVLNQVADLLEQST, which protein stability index is on record?
Answer: 3.34

Question: Which protein stability index does the source give for WSSRSPQERSRVLNQVADQLEQSL here?
Answer: 4.19

Question: Which protein stability index does the source give for WSSRSPQERSRVLNQVADKLEQSL here?
Answer: 3.79

Question: Which protein stability index does the source give for WSSRSPQERSRVLNQVADRLEQSL here?
Answer: 3.98

Question: With WSSRSPQERSRVLNQVADPLEQSL as the variant, how does the protein stability index read?
Answer: 4.63

Question: Which protein stability index does the source give for WSSRSPQERSRVLNNVADLLEQSL here?
Answer: 3.22

Question: Which protein stability index does the source give for WSSRSPQERSRVLNKVADLLEQSL here?
Answer: 2.13
